In this data set the test system is Saccharomyces cerevisiae. The data set can be described thus: protein stability index of tFT-peptide fusion (C-terminal peptide) (PSI (0-1 scale)); higher = more stable (slower turnover). Particulars: temperature: 30 C. How it is done: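 MPS profiling in S. cerevisiae of the yeast C-terminome library: the last 12 aa of each annotated ORF are fused to the C-terminus of a sfGFP-mCherry timer, after a GGGS linker. Cells are FACS-sorted into 8 mCherry/sfGFP bins and deep-sequenced. PSI runs from 0 (unstable) to 1 (stable); wild type and das1Δ backgrounds, two technical replicates each.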

Setting [1] is: genetic background: das1 deletion.

± gives the standard deviation of the averaged measurements.

KGAFQKVAATSR [RPL24A C-terminal 12 aa]: the protein stability index stood at 0.7102 ± 0.0065 under setting [1] and 0.685 ± 0.0079 (genetic background: wild type).
In the same order, the values of KGISIVESTFIS [YDR222W C-terminal 12 aa] are 0.704 ± 0.027 and 0.673 ± 0.022.
Take KGKSFILDSSKL [MDH3 C-terminal 12 aa]: the protein stability index by setting is: under setting [1], 0.77184 ± 0.00047; (genetic background: wild type) 0.733 ± 0.039.
As to KGLVIVKDAIIL [PFF1 C-terminal 12 aa], the protein stability index came out at 0.678 ± 0.027 under setting [1] and 0.697 ± 0.01 (genetic background: wild type).
Turning to KGNSMVVHGAQS [SHE3 C-terminal 12 aa], the protein stability index by setting is: under setting [1], 0.687 ± 0.026; (genetic background: wild type) 0.6853 ± 0.0059.
Regarding KIKKIVLKRSFD [NMD2 C-terminal 12 aa], the protein stability index under setting [1] came to 0.7019 ± 0.0021 and the protein stability index (genetic background: wild type) is 0.654 ± 0.022.
For the sequence KISKSELEGVPS [MTC6 C-terminal 12 aa], the protein stability index by setting is: under setting [1], 0.722 ± 0.019; (genetic background: wild type) 0.714 ± 0.045.
KITEKWTHKDFK [NOP53 C-terminal 12 aa]: the protein stability index worked out at 0.688 ± 0.027 under setting [1] and 0.719 ± 0.058 (genetic background: wild type).
As to “KITVSNLTNQQI [YCL001W-B C-terminal 12 aa]”, the protein stability index runs as follows: under setting [1], 0.6746 ± 0.0032; (genetic background: wild type) 0.684 ± 0.04.
The corresponding values for KIVIPDKFIQHI [HRD1 C-terminal 12 aa] are 0.673 ± 0.025 and 0.706 ± 0.028.
Turning to KKAPYFLPAPHT [FMO1 C-terminal 12 aa], the protein stability index is 0.7 ± 0.012 under setting [1] and 0.715 ± 0.0093 (genetic background: wild type).
For the sequence KKEKISKYVSKS [OPI11 C-terminal 12 aa], the protein stability index is 0.725 ± 0.0098 under setting [1] and 0.683 ± 0.035 (genetic background: wild type).
On to KKEPGANCCIIL [RHO2 C-terminal 12 aa], for which the protein stability index is, setting by setting: under setting [1], 0.743 ± 0.02; (genetic background: wild type) 0.72 ± 0.021.
Turning to KKIVIIYVVRFH [BSC4 C-terminal 12 aa], the protein stability index runs as follows: under setting [1], 0.304 ± 0.015; (genetic background: wild type) 0.339 ± 0.01.
For the sequence KKKAINEKAEQN [SEC62 C-terminal 12 aa], the protein stability index came out at 0.679 ± 0.018 under setting [1] and 0.635 ± 0.02 (genetic background: wild type).
On to KKKKSLFLFGKI [YOR019W C-terminal 12 aa], for which the protein stability index runs as follows: under setting [1], 0.702 ± 0.039; (genetic background: wild type) 0.6688 ± 0.0015.
Turning to KKKYKFHQGLSI [SOL2 C-terminal 12 aa], the protein stability index turned out to be 0.699 ± 0.028 under setting [1] and 0.695 ± 0.02 (genetic background: wild type).
For KKLSNDGETQAN [DMO2 C-terminal 12 aa], the protein stability index runs as follows: under setting [1], 0.681 ± 0.013; (genetic background: wild type) 0.655 ± 0.011.
With KKRISEKQHFIE [AMF1 C-terminal 12 aa], the protein stability index was 0.689 ± 0.038 under setting [1] and 0.633 ± 0.016 (genetic background: wild type).
KKRNWKRREASS [NRG2 C-terminal 12 aa]: the protein stability index by setting is: under setting [1], 0.698 ± 0.016; (genetic background: wild type) 0.626 ± 0.044.
In the case of KKRRIHPTPVDL [CAC2 C-terminal 12 aa], the protein stability index under setting [1] turned out to be 0.6974 ± 0.0037 and the protein stability index (genetic background: wild type) worked out at 0.724 ± 0.027.
In the case of KKVLLQAKQYSK [UBC9 C-terminal 12 aa], the protein stability index came to 0.678 ± 0.017 under setting [1] and 0.682 ± 0.031 (genetic background: wild type).
For KLEKKQSERSTH [STE7 C-terminal 12 aa], the protein stability index was determined as 0.7002 ± 0.0013 under setting [1] and 0.769 ± 0.067 (genetic background: wild type).
KLFESGQDSFDN [MRC1 C-terminal 12 aa]: the protein stability index amounted to 0.7192 ± 0.0032 under setting [1] and 0.727 ± 0.022 (genetic background: wild type).
The corresponding values for KLGEAEVQGLIM [YDR340W C-terminal 12 aa] are 0.721 ± 0.0023 and 0.688 ± 0.0056.
The corresponding values for KLGSYLRDYLRK [GLO3 C-terminal 12 aa] are 0.707 ± 0.0072 and 0.689 ± 0.0095.
As for KMFAKYRENSRI [DYN3 C-terminal 12 aa], the protein stability index is, setting by setting: under setting [1], 0.692 ± 0.017; (genetic background: wild type) 0.667 ± 0.0047.
On to KMLWQGITDYYI [YOL163W C-terminal 12 aa], for which the protein stability index by setting is: under setting [1], 0.7357 ± 0.0031; (genetic background: wild type) 0.717 ± 0.021.
On to “KMQGKYIKKKAM [YNR001W-A C-terminal 12 aa]”, for which the protein stability index runs as follows: under setting [1], 0.7139 ± 0.0039; (genetic background: wild type) 0.385 ± 0.024.
For the sequence “KNDKIHLFMYCT [YBR103C-A C-terminal 12 aa]”, the protein stability index amounted to 0.54 ± 0.022 under setting [1] and 0.536 ± 0.0038 (genetic background: wild type).
In the case of KNGYGNSNASWW [DBP1 C-terminal 12 aa], the protein stability index was determined as 0.717 ± 0.031 under setting [1] and 0.691 ± 0.027 (genetic background: wild type).
In the same order, the values of KNNEVLLHKIKI [FAR8 C-terminal 12 aa] are 0.715 ± 0.015 and 0.669 ± 0.056.
With KNVMRRGQFMKR [GRC3 C-terminal 12 aa], the protein stability index worked out at 0.681 ± 0.013 under setting [1] and 0.753 ± 0.048 (genetic background: wild type).
The corresponding values for KPSAKPVDLSKL [DAL7 C-terminal 12 aa] are 0.759 ± 0.011 and 0.846 ± 0.069.
For KPTASSSRKMFR [DUO1 C-terminal 12 aa], the protein stability index stood at 0.7169 ± 0.0025 under setting [1] and 0.722 ± 0.051 (genetic background: wild type).
For the sequence KQKAFIQPKLVF [UTP4 C-terminal 12 aa], the protein stability index came out at 0.691 ± 0.018 under setting [1] and 0.692 ± 0.017 (genetic background: wild type).
Take KQKALRGEFGAF [RNA15 C-terminal 12 aa]: the protein stability index came out at 0.709 ± 0.011 under setting [1] and 0.688 ± 0.01 (genetic background: wild type).
On to KQNSSITQKNSS [EPL1 C-terminal 12 aa], for which the protein stability index by setting is: under setting [1], 0.71115 ± 0.00071; (genetic background: wild type) 0.697 ± 0.031.
Turning to KQVNEDADSDLL [KEL1 C-terminal 12 aa], the protein stability index by setting is: under setting [1], 0.6784 ± 0.0013; (genetic background: wild type) 0.682 ± 0.013.
As for “KRMALFVQEKLA [YFL031C-A C-terminal 12 aa]”, the protein stability index by setting is: under setting [1], 0.717 ± 0.0081; (genetic background: wild type) 0.18 ± 0.0051.
For the sequence “KRPPLPNMSFSW [YLL019W-A C-terminal 12 aa]”, the protein stability index turned out to be 0.776 ± 0.025 under setting [1] and 0.728 ± 0.028 (genetic background: wild type).
For the sequence KRTKTKITSNNG [YBR190W C-terminal 12 aa], the protein stability index is, setting by setting: under setting [1], 0.711 ± 0.012; (genetic background: wild type) 0.69 ± 0.018.
In the same order, the values of KSEVERVYKENS [FAA3 C-terminal 12 aa] are 0.718 ± 0.0093 and 0.6803 ± 0.0059.
KSLAECQELLKN [TPD3 C-terminal 12 aa] displayed a protein stability index under setting [1] of 0.687 ± 0.0072 and a protein stability index (genetic background: wild type) of 0.663 ± 0.061.
KTITIGNLPNSI [UGA2 C-terminal 12 aa]: the protein stability index stood at 0.7224 ± 0.0026 under setting [1] and 0.715 ± 0.026 (genetic background: wild type).
Turning to KTPNTKRRKTHK [HAS1 C-terminal 12 aa], the protein stability index came to 0.745 ± 0.024 under setting [1] and 0.75 ± 0.036 (genetic background: wild type).
In the same order, the values of KTTPRNVELFGM [DXO1 C-terminal 12 aa] are 0.678 ± 0.021 and 0.693 ± 0.018.
For the sequence KVCVCMTINSYN [YDR154C C-terminal 12 aa], the protein stability index was determined as 0.585 ± 0.027 under setting [1] and 0.583 ± 0.018 (genetic background: wild type).
On to “KVTKAAQKAAKK [YPR080W; YBR118W C-terminal 12 aa]”, for which the protein stability index runs as follows: under setting [1], 0.678 ± 0.0078; (genetic background: wild type) 0.696 ± 0.012.
Turning to KWCASYSAGNRR [YLR280C C-terminal 12 aa], the protein stability index runs as follows: under setting [1], 0.709 ± 0.017; (genetic background: wild type) 0.6752 ± 0.0061.
KYESATASALVN [RPS13 C-terminal 12 aa]: the protein stability index reads like this: under setting [1], 0.697 ± 0.019; (genetic background: wild type) 0.702 ± 0.015.
With KYFHEDVSEDAY [MET5 C-terminal 12 aa], the protein stability index stood at 0.707 ± 0.028 under setting [1] and 0.699 ± 0.013 (genetic background: wild type).
For the sequence LADEEDAIHDEL [PDI1 C-terminal 12 aa], the protein stability index is, setting by setting: under setting [1], 0.68604 ± 0.00055; (genetic background: wild type) 0.678 ± 0.023.
For the sequence LAEVIGVLLKDM [AIM10 C-terminal 12 aa], the protein stability index under setting [1] is 0.69483 ± 0.00037 and the protein stability index (genetic background: wild type) stood at 0.646 ± 0.038.
On to LDAILLDIICND [MDM1 C-terminal 12 aa], for which the protein stability index reads like this: under setting [1], 0.697 ± 0.0082; (genetic background: wild type) 0.735 ± 0.045.
In turn, LEEVEVNDFIQE [SWM2 C-terminal 12 aa] registered a protein stability index under setting [1] of 0.7099 ± 0.0036 and a protein stability index (genetic background: wild type) of 0.682 ± 0.02.
The sequence LEKEKLFNNGNH [PRI2 C-terminal 12 aa] yielded a protein stability index under setting [1] of 0.722 ± 0.053 and a protein stability index (genetic background: wild type) of 0.722 ± 0.055.
For the sequence LEKLCQKQSSTK [CMC1 C-terminal 12 aa], the protein stability index reads like this: under setting [1], 0.724 ± 0.022; (genetic background: wild type) 0.712 ± 0.066.
In the case of LELCKLASNNLE [RRI2 C-terminal 12 aa], the protein stability index reads like this: under setting [1], 0.6896 ± 0.0022; (genetic background: wild type) 0.703 ± 0.04.
For LELQSRIESYLF [CNN1 C-terminal 12 aa], the protein stability index is, setting by setting: under setting [1], 0.703 ± 0.0072; (genetic background: wild type) 0.715 ± 0.047.
In turn, LERIVGLLLMDM [MHF2 C-terminal 12 aa] registered a protein stability index under setting [1] of 0.6675 ± 0.0051 and a protein stability index (genetic background: wild type) of 0.651 ± 0.011.
With LFFGGEKVHSLK [NGL3 C-terminal 12 aa], the protein stability index reads like this: under setting [1], 0.7279 ± 0.0017; (genetic background: wild type) 0.715 ± 0.026.
LFYNIRCLGKQF [YAR030C C-terminal 12 aa]: the protein stability index under setting [1] worked out at 0.707 ± 0.011 and the protein stability index (genetic background: wild type) was found to be 0.3967 ± 0.0018.
The corresponding values for LFYQTIGEFASL [ATF2 C-terminal 12 aa] are 0.706 ± 0.01 and 0.721 ± 0.037.
With LGKGGKGKRKMK [LSO2 C-terminal 12 aa], the protein stability index by setting is: under setting [1], 0.705 ± 0.027; (genetic background: wild type) 0.64 ± 0.018.
As to LGNNAVGLAKAI [PEP4 C-terminal 12 aa], the protein stability index reads like this: under setting [1], 0.7 ± 0.0012; (genetic background: wild type) 0.678 ± 0.055.
For LGQAVVKAINFA [YBR277C C-terminal 12 aa], the protein stability index under setting [1] was 0.6797 ± 0.0059 and the protein stability index (genetic background: wild type) came to 0.702 ± 0.041.

The values are drawn from the supplement of paper PMC10724198.
